System: full-length PatE
Experiment: Heterocyclization of full length PatE substrate (core sequence ITVCISVC), MALDI-TOF-MS
Assay type: biochemical
Conditions: MALDI-TOF-MS (FIG. 9)
Excerpt: Reaction Zoomed view with reaction products identified. The mass of the starting material is 6983.8 Da.

B1: MicD-Q21-5G: fused-MicD: leader from Q21, 5 GA repeats linker, KL, MicD (SEQ ID NO: 40) (protein)
chain: MSHHHHHHDYDENLYFQGSQLSSQLAELSEEALGDAGAGAGAGAGAKLMQSTPLLQIQPHFHVEVIEPKQVYLLGEQANYALTGQLYCQILPLLDGQHSREQIVEKLDGEVPSEYIDYVLDRLAEKGYLTEAAPELSSEVAAFWSELGIAPPVAAEALRQSVTLTPVGNISEVTVAALTTALRDIGISVQTPTEAGSPTALNVVLTDDYLQPELAKINKQALESQQTWLLVKPVGSVLWLGPVFVPGKTGCWDCLAHRLRGNREVEASVLQQKQAQQQRNGQSGSVIGCLPTARATLPSTLQTGLQFAATEIAKWIVKHHVKATAPGTVFFPTLDGKIITFNHTVIDLKSHVLVRRSQCPSCGDRQILHRQGFEPVKLVSRRKHFTHDGGHRAFTPEQTVQKYQHLVSPITGVVTELVRLTDPANPLVHTYKAGHAFGSATTLRGLRNTLKYKSSGKGKTDIQSRASGLCEAIERYSGIFQGDEPRKRATLAELGDLALHPESLLYFSNTQYANREELNAQGSAAAYRWIPNRFDVSQAIDWTPVWSLTEQKHKYVPTAFCYYGYPLPEEQRFCKADSNGNAAGNTLEEAILQGFLELVERDSIAMWWYNRIRRPAVDLSTFDEPYFVDLQQFYQQQNRELWVLDVTADLGIPAFAGFSRRTVGTSERISIGFGAHLDPTIAILRALTEVSQVGLELDKIPDDKLDGESKDWMLNVTVENHPWLAPDPSVPMKTASDYPKRWSDDIHTDVMNCVKTAQTAGLEVMVLDQTRPDIGLNVVKVIIPGMRTFWTRFGQGRLYDIPVKLGWLDAPLAEEELNQTNIPF
modifications: Modified heterocyclase MicroD_Q21_5GA
Q: B1 was tested. Which “heterocyclization of full-length PatE” value did it give?
A: The value was “inefficiently and produce a mixture of different heterocyclic species”.

From patent US20180245061A1, “Modified Heterocyclase” (THE UNIVERSITY COURT OF THE UNIVERSITY OF ABERDEEN, priority 2014, published 2018)
